Test results as given in publication PMC7110144, “Structural basis for centromere maintenance by Drosophila CENP‐A chaperone CAL1” (The EMBO Journal, 2020).
Numbering of substitutions follows the chain as printed. Numbers in names are those of the source.

T1: His-CAL1(1-160) (Drosophila melanogaster, UniProt Q9VEN2 1-160)
T1 construct: CAL1, Drosophila melanogaster, residues 1-160; In crystal form I only CAL1 residues 17-47 were seen; the authors conclude that CAL1 was proteolytically cleaved during crystallisation; also called His-CAL1(1-160 WT); source: E. coli BL21 (DE3) Gold, purified (HisTrap native or Ni-NTA denaturing; SEC); not shown: His, N-terminal, kept
T1 sequence (looked up): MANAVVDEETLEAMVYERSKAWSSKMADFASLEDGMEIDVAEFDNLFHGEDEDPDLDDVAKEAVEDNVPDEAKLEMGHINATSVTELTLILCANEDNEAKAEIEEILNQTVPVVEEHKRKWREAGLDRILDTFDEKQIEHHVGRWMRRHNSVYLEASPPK

T2: CENP-A-GFP-LacI (in U2OS cells) (Drosophila melanogaster, UniProt Q9V6Q2 1-225)
T2 construct: CENP-A (CID), Drosophila melanogaster; source: U2OS cells with a LacO array, transfected (pN2-CMV vector), in cells; not shown: GFP, C-terminal, kept; LacI, C-terminal, kept
T2 sequence (looked up): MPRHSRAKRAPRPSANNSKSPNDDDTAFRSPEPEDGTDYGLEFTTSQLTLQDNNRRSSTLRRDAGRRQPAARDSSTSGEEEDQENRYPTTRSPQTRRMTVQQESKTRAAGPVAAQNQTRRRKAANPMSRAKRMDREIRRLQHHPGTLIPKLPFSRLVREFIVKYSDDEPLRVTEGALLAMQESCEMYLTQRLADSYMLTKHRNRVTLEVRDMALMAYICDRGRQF

B1: CENP-A(101-225) (domain or fragment, Drosophila melanogaster, UniProt Q9V6Q2 101-225, looked up)
chain: QQESKTRAAGPVAAQNQTRRRKAANPMSRAKRMDREIRRLQHHPGTLIPKLPFSRLVREFIVKYSDDEPLRVTEGALLAMQESCEMYLTQRLADSYMLTKHRNRVTLEVRDMALMAYICDRGRQF
notes: also called CID; histone fold domain of CENP-A
B2: His-CAL1(1-160) F43R (domain or fragment)
chain: T1 sequence (looked up) with F43R
notes: CAL1, Drosophila melanogaster, residues 1-160, codon optimised; source: E. coli, recombinant, purified; not shown: His, N-terminal, kept
B3: CENP-C(1264-1411) (domain or fragment, Drosophila melanogaster, UniProt Q9VHP9 1264-1411, looked up)
chain: GPVVFSTPLRDEQEEASTKLMQWLRGVGDAPPSASMSDENASVSSANELIFCQVDGIDYAFYNTKEKAMLGYMRFKPYQKRSMKQAKVHPLKLLVQFGEFNVETLAVGEEKEVHSVLRVGDMIEIDRGTRYSIQNAIDKVSVLMCIRS
notes: also called CENP-C cupin domain; source: E. coli Rosetta (DE3), purified; tag removed with 3C, SEC; not shown: His, N-terminal, cleaved
B4: His-CENP-C(1264-1411) (domain or fragment)
chain: B3 chain
notes: vector pEC-K-3C-His; also called CENP-C cupin domain; source: E. coli Rosetta (DE3), purified (HisTrap, SEC); not shown: His, N-terminal, kept
B5: His-CAL1(1-160-LL-841-979) (domain or fragment, Drosophila melanogaster)
chain: MANAVVDEETLEAMVYERSKAWSSKMADFASLEDGMEIDVAEFDNLFHGEDEDPDLDDVAKEAVEDNVPDEAKLEMGHINATSVTELTLILCANEDNEAKAEIEEILNQTVPVVEEHKRKWREAGLDRILDTFDEKQIEHHVGRWMRRHNSVYLEASPPKGSSGGSSGGGDPDCTVVTSTTGCEPPASERQEIPATIKITKRGILLHSPSAPEGASFTLTEQGLGKIIGERWARKYLKYHIGSRSFDSRHSVYYQPTPQLAAALSAPQDAQNIGNISGSSASDDDIFEQINRYGTVYSILENNSGDK
notes: CAL1, Drosophila melanogaster, residues 1-160; flexible linker (LL) in place of residues 161-840; not shown: His, N-terminal, kept
B6: CENP-A(144-225) (domain or fragment, Drosophila melanogaster, UniProt Q9V6Q2 144-225, looked up)
chain: PGTLIPKLPFSRLVREFIVKYSDDEPLRVTEGALLAMQESCEMYLTQRLADSYMLTKHRNRVTLEVRDMALMAYICDRGRQF
B7: CAL1(841-979) (domain or fragment, Drosophila melanogaster, UniProt Q9VEN2 841-979, looked up)
chain: GGDPDCTVVTSTTGCEPPASERQEIPATIKITKRGILLHSPSAPEGASFTLTEQGLGKIIGERWARKYLKYHIGSRSFDSRHSVYYQPTPQLAAALSAPQDAQNIGNISGSSASDDDIFEQINRYGTVYSILENNSGDK
notes: only residues 890-913 are seen in the structure; source: E. coli BL21 (DE3) Gold, purified; not shown: His6, N-terminal, cleaved; SUMO, N-terminal, cleaved
B8: CAL1(F43R)-V5 (in U2OS cells) (natural protein, Drosophila melanogaster, UniProt Q9VEN2 1-979, looked up)
chain: MANAVVDEETLEAMVYERSKAWSSKMADFASLEDGMEIDVAERDNLFHGEDEDPDLDDVAKEAVEDNVPDEAKLEMGHINATSVTELTLILCANEDNEAKAEIEEILNQTVPVVEEHKRKWREAGLDRILDTFDEKQIEHHVGRWMRRHNSVYLEASPPKYLPPHHNSISDESDESMHSIDTARYIQQSRRRNAHMTNKNMTTIKMYRKHSHKRDELRAKYAYGDEQEHRHHMQAVLLRRRERERQLAYLASTPMQCVYSSGHHMRRKNLRKRRINSWMFDSASSSEEDTSFGGCDCHSCRRHYALSRSVYQSCPYGRGQREYHHRQMASRTMHTMRRQHTFDMEMDLRPRLPENECSCCNSDRLCSNVIHIANSSTEEWVVENRSNHLTQETQEKTRKQKHQPMDARKVSHQPVCSKGHEQKPLSSKATSVSKLVLSKEKYMQMFDSESSDEDNALAKKGLLCCSDKKKGMTFPTPNAAGKITHPTSSAKKAIRKEARPNGLAQIQEEGPTATNSPIESTYLPVAHMKSVSIDGSSGTSATFESPAKKAPKRGIRETSPLNGNELQQLISTIPIADEKASSLMEKVDNCIGRESFDDRNKDFMHMENSSTKTAVEKSTKQKRVSGKKSEIPKSIITNNEILEKNSTETLSEKQVAAKAKKQSVRKTGATGKPSTSRLKKSEKTKTTSSVTSTSKLEQVREEESDVSSEVLAKPKPQCSTTASILKQGGDGASNSEDDLQIALAMSKATYKEEQQKRKKTKREPSNKQPQSPAEKSMTVFNNQSVACNSTALANDTACYRVLPKRRGVKRAAAVSTTEEKTATNSSSSPTSSLEEMGSPTGGDPDCTVVTSTTGCEPPASERQEIPATIKITKRGILLHSPSAPEGASFTLTEQGLGKIIGERWARKYLKYHIGSRSFDSRHSVYYQPTPQLAAALSAPQDAQNIGNISGSSASDDDIFEQINRYGTVYSILENNSGDK
notes: CAL1, Drosophila melanogaster; non-codon-optimised; source: U2OS cells with a LacO array, transfected, in cells; not shown: V5, C-terminal, kept

Tests used:
[1] = biological target: T1, His-CAL1(1-160); test: cross-linking; gel-filtered complex dialysed into PBS; EDC/sulpho-NHS 1.5 h or BS3 2 h at RT; gel bands digested with trypsin, LC-MS/MS; conditions: both partners purified
[2] = biological target: T3, H4 (Drosophila melanogaster, UniProt P84040 1-103); test: crystal structure; crystal form I; complex at 27 mg/ml in 20 mM Tris-HCl pH 8.0, 1 M NaCl, 5 mM DTT; 0.01 M cobalt(II) chloride, 0.1 M MES pH 6.5, 1.8 M ammonium sulphate, 18°C; crystals after about a year; conditions: both partners purified
T3 construct: histone H4, Drosophila melanogaster (dm H4); plasmid pET22b H4, gift of Karolin Luger; also called histone H4; dm H4

[3] = biological target: T4, CENP-A(101-225)-H4 (Drosophila melanogaster, UniProt Q9V6Q2 101-225; P84040 1-103); test: pull-down; His-CAL1(1-160) WT or mutant mixed with 1.3 times molar excess of CENP-A(101-225)-H4 and captured on Ni-NTA resin; 20 mM Tris-HCl pH 8.0, 2 M NaCl, 10% glycerol, 0.5% NP40, 35 mM imidazole, 2 mM βME, 30 min at 4°C; Coomassie-stained SDS-PAGE; conditions: both partners purified
T4 construct: histone H4, Drosophila melanogaster (dm H4); plasmid pET22b H4, gift of Karolin Luger; also called CENP-A/H4; CENP-A/H4 complex

[4] = biological target: the molecule itself; test: SEC-MALS; Superdex 75 increase 10/300 GL, 50 mM HEPES pH 8.0, 100 mM NaCl, 1 mM TCEP, 4°C
[5] = biological target: T5, His-CAL1(1-160-LL-841-979)/CENP-A(101-225)/H4 (Drosophila melanogaster, UniProt Q9VEN2 1-160; Q9VEN2 841-979; Q9V6Q2 101-225; P84040 1-103); test: SEC; refolded His-CAL1(1-160-LL-841-979)/CENP-A(101-225)/H4 alone or mixed with 1.2 molar excess of His-CENP-C(1264-1411); Superdex 200 increase 10/300, 20 mM Tris-HCl pH 8.0, 100 mM NaCl, 2 mM DTT; conditions: both partners purified
T5 construct: CAL1, Drosophila melanogaster, residues 1-160; flexible linker (LL) in place of residues 161-840; histone H4, Drosophila melanogaster (dm H4); plasmid pET22b H4; not shown: His, N-terminal, kept; copies: + +

[6] = biological target: B4; test: as above; conditions: both partners purified
[7] = biological target: T4, CENP-A(101-225)-H4; test: as above; conditions: both partners purified
[8] = biological target: T1, His-CAL1(1-160); test: crystal structure; crystal form II; complex in 20 mM Tris-HCl pH 8.0, 1 M NaCl, 2 mM DTT; lithium sulphate, 0.1 M Tris pH 8.5, PEG 4000; anisotropic diffraction; conditions: both partners purified
[9] = biological target: T3, H4; test: as above; conditions: both partners purified
[10] = biological target: B3; test: AUC; sedimentation velocity (49 k rpm) and sedimentation equilibrium (26 k rpm), 4°C; untagged proteins and SEC purified untagged complex; a range of concentrations, up to 10 mg/ml; conditions: both partners purified
[11] = biological target: T2, CENP-A-GFP-LacI (in U2OS cells); test: LacO/LacI tethering assay (recruitment seen by immunofluorescence); human U2OS cells with a LacO array; GFP-LacI fusion tethered, recruitment of co-transfected CAL1-V5 measured at the LacO spot; conditions: partners not purified

**Q.** Does B1 bind [1]?
**A.** Result: binds

**Q.** Does B1 bind [2]?
**A.** Result: binds

**Q.** Does B2 bind [3]?
**A.** Result: binds

**Q.** With B3 as the binder, how does the “stoichiometry N” value [4] read?
**A.** The value was 2.

**Q.** Does B4 bind [5]?
**A.** Result: binds

**Q.** Which results are given for B5?
**A.** binding result [6]: binds; binding result [7]: binds

**Q.** Does B6 bind [8]?
**A.** Result: binds

**Q.** Does B6 bind [9]?
**A.** Result: binds

**Q.** Which “stoichiometry N” value [10] does the source give for B7 here?
**A.** The value was 1 CAL1 per CENP-C dimer (2:1 CENP-C:CAL1).

**Q.** With B8 as the binder, how does the “fold change of recruitment against CAL1 WT” value [11] read?
**A.** The value was 3 fold less than CAL1 WT.
